Test results as given in article PMC10611767, “TudS desulfidases recycle 4-thiouridine-5’-monophosphate at a catalytic [4Fe-4S] cluster” (Communications Biology, 2023).

Experiments:
Test in all cases: purified protein
Settings in all cases: anaerobic, normalized to 4 Fe per protein
[1] = tested on: O=c1[nH]c(=S)ccn1[C@@H]1O[C@H](CO)[C@@H](O)[C@H]1O
[2] = tested on: O=c1[nH]c(=S)ccn1[C@@H]1O[C@H](COP(=O)(O)OP(=O)(O)OP(=O)(O)O)[C@@H](O)[C@H]1O
[3] = tested on: O=c1[nH]c(=S)ccn1[C@@H]1O[C@H](COP(=O)(O)O)[C@@H](O)[C@H]1O
O=c1[nH]ccc(=S)[nH]1 = tested on: O=c1[nH]ccc(=S)[nH]1
[4] = 100 mM MOPS/KOH pH 7.3, 30 °C, anaerobically purified
[5] = 100 mM MOPS/KOH pH 7.3, anaerobically purified

TudS_A (uncultured bacterium)
Km [1, 4]: 3100 ± 600 µM | Vmax [1, 4]: 30.1 µmol/min/mg | kcat [1, 4]: 8.8 ± 0.9 s⁻¹ | kcat/Km [1, 4]: 2880 M⁻¹ s⁻¹ | Km [2, 4]: 100 ± 23 µM | Vmax [2, 4]: 234 µmol/min/mg | kcat [2, 4]: 68.6 ± 3.4 s⁻¹ | kcat/Km [2, 4]: 685000 M⁻¹ s⁻¹ | Km [3, 4]: 38 ± 13 µM | Vmax [3, 4]: 1000 µmol/min/mg | kcat [3, 4]: 293 ± 44 s⁻¹ | kcat/Km [3, 4]: 7.77e+06 M⁻¹ s⁻¹ | Km (O=c1[nH]ccc(=S)[nH]1; [4]): 240 ± 30 µM | Vmax (O=c1[nH]ccc(=S)[nH]1; [4]): 2.4 µmol/min/mg | kcat (O=c1[nH]ccc(=S)[nH]1; [4]): 0.7 ± 0.05 s⁻¹ | kcat/Km (O=c1[nH]ccc(=S)[nH]1; [4]): 2900 M⁻¹ s⁻¹

TudS_P (Pseudomonas sp. MIL19)
Km [1, 5]: 200 ± 90 µM | Vmax [1, 5]: 64.3 µmol/min/mg | kcat [1, 5]: 19.9 ± 4.7 s⁻¹ | kcat/Km [1, 5]: 103000 M⁻¹ s⁻¹ | Km [2, 5]: 117 ± 26 µM | Vmax [2, 5]: 168 µmol/min/mg | kcat [2, 5]: 52.3 ± 2.4 s⁻¹ | kcat/Km [2, 5]: 448000 M⁻¹ s⁻¹ | Km [3, 5]: 20 ± 7 µM | Vmax [3, 5]: 447 µmol/min/mg | kcat [3, 5]: 138 ± 16 s⁻¹ | kcat/Km [3, 5]: 7.63e+06 M⁻¹ s⁻¹ | Km (O=c1[nH]ccc(=S)[nH]1; [5]): 1490 ± 270 µM | Vmax (O=c1[nH]ccc(=S)[nH]1; [5]): 15.9 µmol/min/mg | kcat (O=c1[nH]ccc(=S)[nH]1; [5]): 4.93 ± 0.43 s⁻¹ | kcat/Km (O=c1[nH]ccc(=S)[nH]1; [5]): 3270 M⁻¹ s⁻¹
